Test results: publication PMC12799932, “Development of a VHH that inhibits the binding of neuronal pentraxin 2 to a postsynaptic glutamate receptor, AMPAR” (The Journal of Biological Chemistry, 2025)
Several values for one entry are separate records, joined by “and”; a condition that tells them apart may be missing. Equal values may be shown once.

Assays:
[1] = molecular target: NP2 CC2 (construct consisting of only the CC2 region of NP2) (human) (UniProt P47972); assay: mass photometry; Two^MP, 200 nM NP, 10 mM Hepes-NaOH pH 7.4, 150 mM NaCl, without CaCl2, 25 °C
[2] = molecular target: NP2 CC2 (construct consisting of only the CC2 region of NP2) (human) (UniProt P47972); assay: mass photometry; Two^MP, 200 nM NP, 10 mM Hepes-NaOH pH 7.4, 150 mM NaCl, with 3 mM CaCl2, 25 °C
[3] = molecular target: NP2 N- (neuronal pentraxin 2 in which CC1 was deleted) (human); assay: SPR; Biacore 8K; NP2 N- or NP2 PTX amine-coupled on CM5, VHH N1 analyte 5-80 nM, single-cycle kinetics; 10 mM Hepes-NaOH pH 7.4, 150 mM NaCl, 0.005% Tween-20, without CaCl2, 25 °C
[4] = molecular target: T1, NP2 PTX (pentraxin domain of neuronal pentraxin 2) (human) (UniProt P47972); assay: as above
T1 sequence: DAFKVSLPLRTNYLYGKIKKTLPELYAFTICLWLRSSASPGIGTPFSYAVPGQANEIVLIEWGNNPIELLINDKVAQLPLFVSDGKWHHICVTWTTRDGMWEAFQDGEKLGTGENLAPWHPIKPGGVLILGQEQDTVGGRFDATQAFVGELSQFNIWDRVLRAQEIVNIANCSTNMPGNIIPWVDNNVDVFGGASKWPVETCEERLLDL

[5] = molecular target: T2, NP2 PTX D407A (human, UniProt P47972, D407A); assay: SPR; Biacore 8K; NP2 PTX single alanine mutants (~800 RU) amine-coupled on CM5, VHH N1 analyte 1.25-20 nM (D407A) or 62.5-1000 nM (V412A, W419A); 10 mM Hepes-NaOH pH 7.4, 150 mM NaCl, 0.005% Tween-20, 3 mM CaCl2; details: both partners purified
T2 construct: neuronal pentraxin 2 (NP2, Nptx2), human, pentraxin (PTX) domain with D407A; also called D407A_(NP2 PTX); source: Expi293 cells, secreted, purified (same procedure as NP2 PTX WT)

[6] = molecular target: NP2 N- (neuronal pentraxin 2 in which CC1 was deleted) (human); assay: SPR; Biacore 8K; NP2 N- (~800 RU) or NP2 PTX (~600 RU) amine-coupled on CM5, VHH N1 analyte 1.25-20 nM, single-cycle kinetics; 10 mM Hepes-NaOH pH 7.4, 150 mM NaCl, 0.005% Tween-20, 3 mM CaCl2, 25 °C
[7] = molecular target: T1, NP2 PTX (pentraxin domain of neuronal pentraxin 2) (human); assay: as above
[8] = molecular target: NP2 N- (neuronal pentraxin 2 in which CC1 was deleted) (human); assay: mass photometry; Two^MP; equal amounts of VHH N1 and NP2 N- or NP2 C95S, 200 nM each (as monomer); 10 mM Hepes-NaOH pH 7.4, 150 mM NaCl, without CaCl2, 25 °C
[9] = molecular target: NP2 C95S (full-length NP2 with cysteine 95 mutated to serine) (human) (UniProt P47972); assay: as above
[10] = molecular target: T3, HA-NP2 (HA-tagged mouse full-length NP2) (Mus musculus, UniProt O70340); assay: immunostaining of cells or tissue; HEK293 cells expressing HA-tagged mouse NPs, fixed with 4% paraformaldehyde, permeabilized, stained with 1 μg/ml VHH N1, detected by rabbit anti-His; anti-HA as expression control; details: one partner purified
T3 construct: source: HEK293, transfected, in fixed cells; HEK293 tSA cells, cell supernatant; not shown: HA, N-terminal, kept

[11] = molecular target: T4, NPR PTX (pentraxin domain of neuronal pentraxin receptor) (human, UniProt O95502); assay: SPR; Biacore 8K; NP1 PTX or NPR PTX (~600 RU) amine-coupled on CM5, VHH N1 analyte 625-10,000 nM, multicycle kinetics; 10 mM Hepes-NaOH pH 7.4, 150 mM NaCl, 0.005% Tween-20, 3 mM CaCl2, 25 °C; details: both partners purified
T4 construct: neuronal pentraxin receptor (NPR, Nptxr), human, pentraxin (PTX) domain; also called PTX domain of NPR; source: Expi293 cells, secreted, purified (Ni-NTA, SEC)

[12] = molecular target: T5, NP1 PTX (pentraxin domain of neuronal pentraxin 1) (human, UniProt Q15818); assay: as above; details: both partners purified
T5 construct: neuronal pentraxin 1 (NP1, Nptx1), human, pentraxin (PTX) domain; also called PTX domain of NP1; source: Expi293 cells, secreted, purified (Ni-NTA, SEC)

[13] = molecular target: T1, NP2 PTX (pentraxin domain of neuronal pentraxin 2) (human); assay: SPR; competition; Biacore T200; GluA4 ATD (~800 RU) amine-coupled on CM5, 500 nM NP2 PTX mixed with 0-1000 nM VHH N1 as analyte; 10 mM Hepes-NaOH pH 7.4, 150 mM NaCl, 3 mM CaCl2, 0.005% Tween-20
[14] = molecular target: VHH N1 (alpaca); assay: ITC; iTC200; 50 μM NP2 PTX from the syringe into 5 μM VHH N1 in the cell; 10 mM Hepes-NaOH pH 7.4, 150 mM NaCl, 0 mM CaCl2, 25 °C
[15] = molecular target: VHH N1 (alpaca); assay: ITC; iTC200; 50 μM NP2 PTX from the syringe into 5 μM VHH N1 in the cell; 10 mM Hepes-NaOH pH 7.4, 150 mM NaCl, 3 mM CaCl2, 25 °C
[16] = molecular target: T6, GluA4 ATD (amino-terminal domain of human GluA4), recombinant (human, UniProt P48058 21-402); assay: SPR; Biacore T200; GluA4 ATD (~400 RU) amine-coupled on CM5, NP2 constructs as analytes (31.25-2000 nM NP2 N- and NP2 PTX, 62.5-4000 nM NP2 CC2); 10 mM Hepes-NaOH pH 7.4, 150 mM NaCl, 0.005% Tween-20, with 3 mM CaCl2; details: both partners purified
T6 construct: AMPA-type glutamate receptor subunit GluA4, human, amino-terminal domain (ATD); source: Expi293 cells, secreted, purified (Ni-NTA, SEC)
T6 sequence (looked up): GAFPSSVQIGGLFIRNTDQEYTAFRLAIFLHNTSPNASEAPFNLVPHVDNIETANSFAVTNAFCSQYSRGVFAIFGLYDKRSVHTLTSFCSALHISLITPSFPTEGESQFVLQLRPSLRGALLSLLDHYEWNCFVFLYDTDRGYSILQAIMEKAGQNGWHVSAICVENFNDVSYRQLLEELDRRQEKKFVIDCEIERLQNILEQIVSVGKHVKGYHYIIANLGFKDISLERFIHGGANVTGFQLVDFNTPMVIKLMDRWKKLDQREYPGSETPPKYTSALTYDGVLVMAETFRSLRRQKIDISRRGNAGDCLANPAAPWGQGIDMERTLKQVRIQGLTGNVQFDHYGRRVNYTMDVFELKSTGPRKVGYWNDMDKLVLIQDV

[17] = molecular target: T7, NP2 N- (neuronal pentraxin 2 in which CC1 was deleted) (human); assay: mass photometry; Two^MP, 200 nM NP, 10 mM Hepes-NaOH pH 7.4, 150 mM NaCl, with 3 mM CaCl2, 25 °C; details: both partners purified
T7 chain: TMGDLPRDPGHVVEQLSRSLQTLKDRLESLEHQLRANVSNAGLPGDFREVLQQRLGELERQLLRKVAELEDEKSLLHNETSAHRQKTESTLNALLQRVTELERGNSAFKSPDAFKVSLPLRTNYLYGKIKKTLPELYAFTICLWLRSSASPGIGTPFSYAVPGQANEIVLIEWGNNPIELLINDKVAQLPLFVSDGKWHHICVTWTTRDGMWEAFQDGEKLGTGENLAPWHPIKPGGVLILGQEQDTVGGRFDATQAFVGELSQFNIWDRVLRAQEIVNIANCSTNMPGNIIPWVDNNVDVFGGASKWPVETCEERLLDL

[18] = molecular target: T7, NP2 N- (neuronal pentraxin 2 in which …); assay: mass photometry; Two^MP, 200 nM NP, 10 mM Hepes-NaOH pH 7.4, 150 mM NaCl, without CaCl2, 25 °C; details: both partners purified

T4 sequence (O95502 292-494): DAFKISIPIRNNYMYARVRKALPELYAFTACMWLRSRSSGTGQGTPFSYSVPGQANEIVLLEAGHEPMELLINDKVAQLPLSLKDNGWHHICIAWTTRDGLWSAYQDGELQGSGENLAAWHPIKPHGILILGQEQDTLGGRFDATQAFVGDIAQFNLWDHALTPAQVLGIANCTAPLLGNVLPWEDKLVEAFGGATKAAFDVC
T5 sequence (Q15818 226-428): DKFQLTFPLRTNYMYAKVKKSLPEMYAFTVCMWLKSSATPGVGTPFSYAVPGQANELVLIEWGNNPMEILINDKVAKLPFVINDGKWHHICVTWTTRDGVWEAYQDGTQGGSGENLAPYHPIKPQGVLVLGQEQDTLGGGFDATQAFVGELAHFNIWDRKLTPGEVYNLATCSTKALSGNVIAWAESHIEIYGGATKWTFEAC

NP2 CC2 (construct consisting of only the CC2 region of NP2) (from UniProt P47972 16-431) (domain or fragment)
stoichiometry N [1]: > 3
stoichiometry N [2]: > 3

B1: VHH N1 (VHH)
VHH: QLQLVESGGGLVQAGDSLKLSCIDSGSTFNLYAMGWFRQAPGKEREFVASISRGGGSSYYADSQLKGRFTISRDNAKNTVYLQMNSLKPEDTAVYYCNARAGRYDYWGQGTQVTVSS
notes: selected by phage display from an immune library of an alpaca immunized with NP2 N-; Cloned into the pRA2 vector with a C-terminal His-tag; detected by anti-His in the cell staining; also called N1 VHH; VHH for NP2; source: E. coli BL21 (DE3), purified (Ni-NTA, SEC); not shown: His-tag, C-terminal, kept
Kd [3]: 33.5 nM
koff [3]: 0.00514 s⁻¹
kon [3]: 156000 M⁻¹ s⁻¹
Kd [4]: 11.6 nM
koff [4]: 0.0249 s⁻¹
kon [4]: 2.21e+06 M⁻¹ s⁻¹
fold change of affinity against NP2 PTX WT [5]: 3 times lower
Kd [6]: 1.41 nM
koff [6]: 0.00524 s⁻¹
kon [6]: 3.7e+06 M⁻¹ s⁻¹
Kd [7]: 1.14 nM
koff [7]: 0.00208 s⁻¹
kon [7]: 1.92e+06 M⁻¹ s⁻¹
stoichiometry N [8]: 1
stoichiometry N [9]: 1
binding result [10]: binds
binding result [11]: no binding (tested: 10,000 nM)
binding result [12]: no binding (tested: 10,000 nM)
IC50 [13]: 216 nM

B2: NP2 PTX (pentraxin domain of neuronal pentraxin 2) (domain or fragment, human)
chain: DAFKVSLPLRTNYLYGKIKKTLPELYAFTICLWLRSSASPGIGTPFSYAVPGQANEIVLIEWGNNPIELLINDKVAQLPLFVSDGKWHHICVTWTTRDGMWEAFQDGEKLGTGENLAPWHPIKPGGVLILGQEQDTVGGRFDATQAFVGELSQFNIWDRVLRAQEIVNIANCSTNMPGNIIPWVDNNVDVFGGASKWPVETCEERLLDL
notes: neuronal pentraxin 2 (NP2, Nptx2), human, pentraxin (PTX) domain; also called NP2 PTX WT; PTX domain of NP2; source: Expi293 cells, secreted, purified (Ni-NTA, SEC)
Kd [14]: 57.5 nM
dH [14]: -7.53 kcal/mol
stoichiometry N [14]: 0.781
Kd [15]: 19.7 nM
dH [15]: -7.36 kcal/mol
stoichiometry N [15]: 0.913
Kd [16]: 13600 nM

B3: NP2 N- (neuronal pentraxin 2 in which CC1 was deleted) (domain or fragment)
chain: TMGDLPRDPGHVVEQLSRSLQTLKDRLESLEHQLRANVSNAGLPGDFREVLQQRLGELERQLLRKVAELEDEKSLLHNETSAHRQKTESTLNALLQRVTELERGNSAFKSPDAFKVSLPLRTNYLYGKIKKTLPELYAFTICLWLRSSASPGIGTPFSYAVPGQANEIVLIEWGNNPIELLINDKVAQLPLFVSDGKWHHICVTWTTRDGMWEAFQDGEKLGTGENLAPWHPIKPGGVLILGQEQDTVGGRFDATQAFVGELSQFNIWDRVLRAQEIVNIANCSTNMPGNIIPWVDNNVDVFGGASKWPVETCEERLLDL
modifications: Exact start is not in the text (Figures 1B and S1); it is set by convention just after CC1 and its Cys95, keeping CC2, PTX and the native C-terminus. Human is inferred from the D407/V412/W419 …
stoichiometry N [17]: 9 and 12
stoichiometry N [18]: 6 and 3
